From patent publication US12668636B2, “Pharmaceutical combinations” (BERLIN-CHEMIE AG, priority 2017, dated 2026)

Experiments:
[1] = tested on: Contiguous 8mer peptides of LY75 protein; experiment: Peptide microarray epitope characterization; format: binding; conditions: 1 μg/mL LY75_A1, scale 1-65535
Procedure: The peptide microarray analysis was performed by LC Sciences, Houston TX, in brief the method comprised the following steps:—Contiguous 8mer peptides of LY75 protein having one amino acid overlap spanning residues 216 to 1666 of the full length LY75 protein were synthesized and immobilized on a microarray chip. The chip comprised three panels such that the experiment was performed in triplicate. The microarray was addressed with LY75_A1 to identify the peptides to which the antibody bound. The binding assay was performed under the following conditions:—
The microarray comprising the contiguous peptides in triplicate was washed with 1 mL of binding buffer at 4° C. for 20 min. It was then incubated with 1 μg/mL LY75_A1 in binding buffer (pH 7.0) at 4° C. for 2 hrs. The array was again washed with 0.5 mL of washing buffer at 4° C. for 30 min then incubated with 25 ng/ml anti-human IgG Alexa 647 conjugate in binding buffer (pH 7.0) at 4° C. for 1 hr. The array was again washed with 0.5 mL of washing buffer at 4° C. for 30 min. The array was then Scanned at 635 nm and PMT 500 and the signal Intensity was recorded. The peptide was classed as detectable if it was present in at least ⅔ legal duplicates. The average signal intensity of the replicates was reported as the final signal intensity. Results

LY75 on COLO205 cells = target: T1, LY75 on COLO205 cells (Homo sapiens, UniProt O60449); experiment: Competitive FACS binding analysis; conditions: blocking antibody from 250 nM, 3 fold serial dilution, conjugate 1 nM (FIG. 5b)
T1 construct: COLO205 cells (ATCC, catalog #CCL-222) were detached from tissue culture flasks; host or cells: COLO205
T1 sequence (O60449 28-1722): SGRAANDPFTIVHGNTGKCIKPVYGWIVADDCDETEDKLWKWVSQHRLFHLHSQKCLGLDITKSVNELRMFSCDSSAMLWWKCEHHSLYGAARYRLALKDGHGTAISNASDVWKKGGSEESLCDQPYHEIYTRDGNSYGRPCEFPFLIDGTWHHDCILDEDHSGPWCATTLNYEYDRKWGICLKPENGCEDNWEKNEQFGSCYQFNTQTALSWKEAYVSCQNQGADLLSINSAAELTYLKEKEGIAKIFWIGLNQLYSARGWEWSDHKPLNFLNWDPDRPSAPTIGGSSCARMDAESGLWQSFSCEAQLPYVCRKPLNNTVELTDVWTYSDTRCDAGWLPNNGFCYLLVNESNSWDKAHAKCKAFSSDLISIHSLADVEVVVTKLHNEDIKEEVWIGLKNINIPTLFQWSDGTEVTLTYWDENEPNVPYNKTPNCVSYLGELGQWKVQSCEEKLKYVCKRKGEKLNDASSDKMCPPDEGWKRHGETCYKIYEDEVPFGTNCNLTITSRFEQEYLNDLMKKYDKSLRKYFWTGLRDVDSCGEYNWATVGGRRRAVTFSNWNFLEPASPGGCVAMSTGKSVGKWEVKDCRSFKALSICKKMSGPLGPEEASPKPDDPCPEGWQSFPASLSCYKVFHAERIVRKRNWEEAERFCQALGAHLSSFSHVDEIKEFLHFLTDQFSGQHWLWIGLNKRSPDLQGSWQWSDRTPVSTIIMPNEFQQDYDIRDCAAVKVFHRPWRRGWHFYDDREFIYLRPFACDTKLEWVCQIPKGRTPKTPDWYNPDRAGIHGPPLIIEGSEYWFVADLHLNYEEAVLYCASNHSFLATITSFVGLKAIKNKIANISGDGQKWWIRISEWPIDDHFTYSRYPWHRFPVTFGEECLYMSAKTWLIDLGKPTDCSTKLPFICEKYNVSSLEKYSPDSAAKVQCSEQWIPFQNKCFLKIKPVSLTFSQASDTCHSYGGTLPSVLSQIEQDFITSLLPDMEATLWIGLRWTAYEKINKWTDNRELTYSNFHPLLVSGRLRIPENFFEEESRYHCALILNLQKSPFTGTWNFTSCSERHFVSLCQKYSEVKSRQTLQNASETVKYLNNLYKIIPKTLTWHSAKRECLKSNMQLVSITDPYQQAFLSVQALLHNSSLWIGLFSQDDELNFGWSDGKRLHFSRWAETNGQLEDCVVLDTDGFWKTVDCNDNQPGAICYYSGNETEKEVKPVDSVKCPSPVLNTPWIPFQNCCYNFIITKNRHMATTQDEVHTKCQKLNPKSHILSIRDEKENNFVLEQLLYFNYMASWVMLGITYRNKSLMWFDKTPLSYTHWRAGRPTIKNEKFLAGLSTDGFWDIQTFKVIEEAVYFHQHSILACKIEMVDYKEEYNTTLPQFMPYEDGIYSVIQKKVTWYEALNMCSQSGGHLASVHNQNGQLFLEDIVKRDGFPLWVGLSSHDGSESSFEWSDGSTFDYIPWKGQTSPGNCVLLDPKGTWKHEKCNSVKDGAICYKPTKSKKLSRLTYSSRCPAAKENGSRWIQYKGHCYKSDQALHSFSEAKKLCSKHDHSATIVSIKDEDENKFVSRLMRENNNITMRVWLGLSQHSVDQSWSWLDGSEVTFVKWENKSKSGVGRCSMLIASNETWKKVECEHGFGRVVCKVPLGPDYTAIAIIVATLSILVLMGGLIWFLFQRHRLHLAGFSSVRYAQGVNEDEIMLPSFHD
Procedure: COLO205 cells (ATCC, catalog #CCL-222) were detached from tissue culture flasks with Cell Stripper (Cellgro, catalog #MT-25-056CI). Cells were washed and resuspended in FACS buffer (PBS+2% FBS), neutralized with growth media, and counted. Cells were plated at 50,000 cells per well in a V Bottom 96-well plate. Cells were washed once with FACS buffer (PBS (Fisher, catalog #SH30028-03)+2% FBS). An anti-LY75-mAb (Selected from Example 1) or LY75_A1 was added to wells starting at 250 nM and diluted serially 3 fold and applied to the relevant wells for 45 minutes on ice. Test wells that required single or multiple staining steps were left in FACS buffer as appropriate to ensure the final staining was completed simultaneously for all conditions tested. Two wells were left unstained in FACS buffer as controls.
After the incubation with blocking antibody, cells were washed twice in FACS buffer. The cells were resuspended in FACS buffer containing the anti-LY75-mAb conjugated to MCC-DM1 (1 nM) and incubated on ice for 45 minutes. The cells were washed as above and resuspended in FACS buffer plus 1 ug/ml mouse anti-maytansine antibody and incubated in ice for 45 minutes. […] Mean fluorescence intensity of each sample was determined using a Guava EasyCyte Plus HT Flow Cytometer (96 well plate formats) and the raw data was analyzed using the Guava Cytosoft.

LY75 = target: T2, LY75 (Homo sapiens, UniProt O60449); experiment: Immunohistochemistry using monoclonal antibody to LY75; conditions: FFPE Triple Negative breast cancer samples
T2 construct: from tissue; host or cells: FFPE triple negative breast cancer sections
T2 sequence (O60449 28-1722): as above
Procedure: FFPE slides were deparaffinised in xylene (2×3 minutes) then rehydrated through 1:1 xylene: 100% ethanol (1×3 minutes), 100% ethanol (2×3 minutes), 95% ethanol (1×3 minutes), 70% ethanol (1×3 minutes), 50% ethanol (1×3 minutes), and tap water (1×3 minutes).
The LY75 antigen was retrieved using microwave heat, high power until boiling then low power for 10 minutes in 50 mL 1× citrate buffer in a Coplin jar. Slides were then left to cool to room temperature for a further 15 min, then washed in tap water, 3 minutes. Circles were drawn around each tissue section/TMA with a hydrophobic barrier pen and slides were then washed 3 times in PBS, 3 minutes each wash.
The primary anti-LY75 antibody was diluted in serum free protein block (SFPB) to obtain a solution with a concentration 20-fold greater than the final desired concentration (20 μg/mL for 1 μg/mL final). The secondary antibody, goat anti-human immunoglobulin G (IgG) antigen-binding fragment (Fab), was prepared similarly in SFPB to create a solution of equal concentration.
Equal volumes of primary and secondary antibodies were combined in a labelled tube, gently mixed, and incubated for 3 minutes at room temperature, resulting in a primary antibody concentration 10-fold greater than the desired final concentration (10 μg/mL for 1 μg/mL final). […]

maximum signal seen for binding ([1]; background cut off 3000): 25000 | sections exhibiting robust (+++) staining (LY75): 55% | sections showing positive staining (LY75): 77%
B1: LY75_A1: anti-LY75 human monoclonal antibody; VH SEQ ID NO:1, VL SEQ ID NO:2 (antibody, listed as Homo sapiens, V domains shown)
VH: EVQLVESGGGLVKPGGSLRLSCAASGFTYSNAWMSWVRQAPGKGLEWVGRIKSKTDGGTTDYAAPVQGRFTISRDDSKNTLYLQMNSLKTEDTAVYYCTIFGVVSFDYWGQGTLVTVSS
VL: DVQMTQSPSSLSASVGDRVTITCRASQSISDYLSWYQQRPGKAPNLLIYAASNLKTGVPSRFSGSGSGTDFTLTISTLQPEDFATYYCQQSYRSPWTFGQGTKVEIKR
average signal for all spots on the array [1]: about 885 | blocking of binding of anti-LY75-mAb-MCC-DM1 (LY75 on COLO205 cells): unable to block binding of anti-LY75-mAb-MCC-DM1
